Assay results as given in the supplement of paper PMC10724198.
± gives the standard deviation of the averaged measurements.

Test system: Saccharomyces cerevisiae
Assay: protein stability index of tFT-peptide fusion (C-terminal peptide) (PSI (0-1 scale)); higher = more stable (slower turnover)
Details: genetic background: wild type; temperature: 30 C
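Also: PSI is a weighted mean of sequencing reads over stability bins, variants kept only with over 10 reads, mCherry proximal and sfGFP distal, peptide attached via GGGS linker.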

| Sequence | protein stability index |
| --- | --- |
| VLGASFTATYFQ | 0.749 ± 0.077 |
| ELEGKIMNITVW | 0.661 ± 0.024 |
| PRPRRSSLPFPP | 0.818 ± 0.073 |
| EKKYKKKYKKKE | 0.641 ± 0.031 |
| DASVIPAKPRRS | 0.69 ± 0.041 |
| SLSTLVFSFCVL | 0.517 ± 0.03 |
| QKKIIRKRKKNR | 0.666 ± 0.012 |
| GKRKKERGGGER | 0.711 ± 0.093 |
| LWGVGGADARLQ | 0.775 ± 0.021 |
| DTSPSPPPLSVL | 0.693 ± 0.017 |
| VVRLRCSVGWCS | 0.575 ± 0.011 |
| LRGAWRISIEGG | 0.666 ± 0.036 |
| CLGPDWWARRSI | 0.772 ± 0.064 |
| GSNQRRKGEHKP | 0.623 ± 0.036 |
| TIDACFHSDWGC | 0.782 ± 0.11 |
| LLLLPPPPPPPT | 0.684 ± 0.046 |
| EYCSSCLADLSP | 0.69 ± 0.074 |
| SPLPPPPRPPLP | 0.691 ± 0.039 |
| GRSQGIWVSRGE | 0.683 ± 0.028 |
| SMFFNSIDATRW | 0.721 ± 0.053 |
| STVTSGCLKRIS | 0.723 ± 0.03 |
| EVRCVFTGWHSS | 0.785 ± 0.096 |
| PFLRLLQTVGST | 0.593 ± 0.024 |
| IDASPRFRDFLF | 0.71 ± 0.022 |
| LKKEKDHKNRNR | 0.67 ± 0.016 |
| KKGKQQKTEKNG | 0.802 ± 0.26 |

| Sequence | protein stability index |
| --- | --- |
| VRRFRYCLGFFR | 0.663 ± 0.059 |
| RACLDRNNLDLG | 0.605 ± 0.075 |
| NKKEYHDRKKKS | 0.619 ± 0.045 |
| GGRGAGRGSVGG | 0.679 ± 0.034 |
| SPDFSVITKSYL | 0.764 ± 0.032 |
| CGVSPPHANLVS | 0.569 ± 0.036 |
| HRRCPVPRGSSP | 0.704 ± 0.019 |
| NEIENYKDIIEK | 0.684 ± 0.011 |
| IKYEKENNINKI | 0.679 ± 0.039 |
| PRPGGHLFLVFS | 0.679 ± 0.033 |
| EFPSFHDQGAYM | 0.738 ± 0.062 |
| PLPGPSPPPAPP | 0.648 ± 0.044 |
| GPSVWRPSESLV | 0.748 ± 0.03 |
| SSSCRGGVSVLV | 0.679 ± 0.044 |
| ETGTRELIRQWV | 0.718 ± 0.02 |
| AGSQEDGRSIKG | 0.669 ± 0.024 |
| FPVWVKGLLGMG | 0.636 ± 0.048 |
| EEWRRRSTKERR | 0.641 ± 0.013 |
| RLYCSWEFTFVQ | 0.617 ± 0.019 |
| RSLVALSRRLRG | 0.6374 ± 0.0023 |
| PPGSSPPPVLSL | 0.703 ± 0.022 |
| KKKKTKKKKINI | 0.605 ± 0.0077 |
| AHPLSPLSSPLR | 0.682 ± 0.081 |
| AGLIRDAVILIG | 0.631 ± 0.021 |
| PPPPRATLPRPP | 0.681 ± 0.044 |
| GRFVTRAWARSW | 0.639 ± 0.018 |

| Sequence | protein stability index |
| --- | --- |
| PSGRRRWACARG | 0.694 ± 0.0097 |
| SPPPALPPPRPL | 0.749 ± 0.031 |
| SATPSSLPLPPS | 0.739 ± 0.029 |
| WEWGCRVEELSG | 0.742 ± 0.0086 |
| WHACAGWLGQKG | 0.71 ± 0.078 |
| FFMNGLWGLSVR | 0.612 ± 0.0092 |
| GSVGFRTGRHLV | 0.615 ± 0.063 |
| HDGIQVSVRRRT | 0.67 ± 0.011 |
| PPPSPSTPKTTL | 0.6943 ± 0.0068 |
| GPVRIDSPFKSA | 0.733 ± 0.017 |
| GGGARGDCLMGS | 0.6809 ± 0.0018 |
| CPPPPPRPPLPP | 0.689 ± 0.056 |
| DSIVWVGVTYFL | 0.553 ± 0.012 |
| PPFSTPFLPPSS | 0.727 ± 0.072 |
| VSPGPSPPPPPR | 0.622 ± 0.072 |
| PAAFPRPTRHAA | 0.693 ± 0.067 |
| FLVSPFTLFPFS | 0.754 ± 0.12 |
| GGSRVSGVVGKG | 0.608 ± 0.0076 |
| VYSGYVFRKDGI | 0.695 ± 0.024 |
| CLPSLPPFPASL | 0.738 ± 0.064 |
| EFLGTVRSVWRK | 0.669 ± 0.086 |
| RFINRVVAGDRR | 0.681 ± 0.032 |
| AIVWGVGCGSVG | 0.738 ± 0.12 |
| AVGSAGRGRLGI | 0.673 ± 0.0078 |
| SPLDSPPLSSPP | 0.659 ± 0.028 |
| GGGGGAKGEGVR | 0.733 ± 0.1 |

| Sequence | protein stability index |
| --- | --- |
| GGVFWEEGAAER | 0.731 ± 0.023 |
| VSSAGRPRGFLP | 0.671 ± 0.01 |
| FSHRPSPLSLSL | 0.719 ± 0.11 |
| KKKKKKRIREKR | 0.721 ± 0.048 |
| PSPTPPPPRSPS | 0.721 ± 0.029 |
| CSRDWRCNVRPV | 0.715 ± 0.022 |
| PLGGLTLNIIEC | 0.701 ± 0.0089 |
| CRLILLVCNGAG | 0.521 ± 0.027 |
| DFIAGGSRPFLV | 0.715 ± 0.015 |
| RLSLGPGLLGSH | 0.74 ± 0.014 |
| EIVTQQKIMDKK | 0.711 ± 0.012 |
| PSFLPPAPLGIS | 0.741 ± 0.038 |
| TFSPPLSSPPGP | 0.706 ± 0.032 |
| SPLSPAVPSTAL | 0.742 ± 0.056 |
| PPLQRFSYRPGR | 0.754 ± 0.069 |
| LGGGGGGGVAGD | 0.723 ± 0.069 |
| TRGSRGARGGGW | 0.716 ± 0.012 |
| NVRCLVELGGEV | 0.714 ± 0.058 |
| VGGGACVWSRRR | 0.698 ± 0.05 |
| RACDQPSGVCNV | 0.669 ± 0.038 |
| PCLSRFPGSPFL | 0.6896 ± 0.0042 |
| INTNASSWRICK | 0.7379 ± 0.0049 |
| HILINTCSCASL | 0.546 ± 0.044 |
| EGRKTLWEGNRG | 0.609 ± 0.059 |
| STSRSFFFCSFL | 0.644 ± 0.072 |
| GLGTIYGGEWWW | 0.759 ± 0.085 |

| Sequence | protein stability index |
| --- | --- |
| LRLSSYRAPRPR | 0.649 ± 0.032 |
| GGYATYWVGVRL | 0.697 ± 0.036 |
| EVGFPGRSWGAG | 0.689 ± 0.07 |
| TLPSPPSPSPRP | 0.679 ± 0.085 |
| SMAPDIQLYTAS | 0.68901 ± 0.0006 |
| PLPPPLPNPPPS | 0.667 ± 0.074 |
| DRSMRPISKRWE | 0.668 ± 0.037 |
| SGGRLVVCEGPG | 0.65 ± 0.087 |
| LGVPPVLLLASS | 0.506 ± 0.0077 |
| AFPPVIPALFSV | 0.697 ± 0.027 |
| RSPRSSSPHPIY | 0.7649 ± 0.006 |
| RPKPKRIGREEP | 0.63 ± 0.083 |
| TKTKKKTQEGSR | 0.739 ± 0.1 |
| SCPTPRFPQCSS | 0.633 ± 0.034 |
| LHGRTLENIVVR | 0.6481 ± 0.0044 |
| FDVAPTSRVNFL | 0.724 ± 0.06 |
| MLLSKRHFESDV | 0.692 ± 0.018 |
| PHPPPVPAPPPP | 0.663 ± 0.008 |
| RRGYEVSSLSDD | 0.672 ± 0.0042 |
| SFPGVRHSTSDS | 0.676 ± 0.017 |
| PRIPHPPRPRPP | 0.669 ± 0.024 |
| SGGIPGSPNVRL | 0.657 ± 0.01 |
| GAWVAVTWAAGL | 0.729 ± 0.018 |
| RPPAPQTATPHR | 0.726 ± 0.013 |
| PPPPVLPPPLPP | 0.7 ± 0.012 |
| GSPSPLIALSRK | 0.689 ± 0.0073 |

| Sequence | protein stability index |
| --- | --- |
| VGSKGCDGCNRA | 0.655 ± 0.047 |
| TRLDLIDSLRHL | 0.731 ± 0.044 |
| RLLYGICLLGAS | 0.558 ± 0.092 |
| SSLPPPPRSPPH | 0.715 ± 0.029 |
| AAQDTRAHYRTR | 0.704 ± 0.044 |
| NPPAPPAPHLST | 0.685 ± 0.013 |
| SASPHSPSPPSR | 0.627 ± 0.079 |
| GVVSVFVGSLGG | 0.699 ± 0.067 |
| LPTPSLPPLPFH | 0.623 ± 0.058 |
| SNACHTTFGDPI | 0.719 ± 0.0078 |
| DKNVREGDRETR | 0.685 ± 0.017 |
| LGWVGGGGGWGC | 0.704 ± 0.03 |
| QLEGQGISFRVL | 0.785 ± 0.065 |
| TSAEYKIETIFT | 0.688 ± 0.036 |
| MLSPQIERGAGR | 0.681 ± 0.018 |
| PPHPPPPSPALL | 0.74 ± 0.01 |
| FCSQNLQMNQLS | 0.6 ± 0.041 |
| GGKTRGVRMCGG | 0.648 ± 0.014 |
| PPPSPPAQSLRS | 0.759 ± 0.079 |
| HKEYGTTCYGYR | 0.691 ± 0.049 |
| KCRGRGRQEAFE | 0.6643 ± 0.0018 |
| IDQTSKRCKRAC | 0.672 ± 0.018 |
| PDPARSPLTSSY | 0.6569 ± 0.0024 |
| SHEARMVCGSSV | 0.63331 ± 0.00024 |
| PHRPPPCLPFGS | 0.728 ± 0.039 |
| IFGRLRELTCWT | 0.588 ± 0.034 |

| Sequence | protein stability index |
| --- | --- |
| RLSFSVPPCLDI | 0.691 ± 0.032 |
| VQASESGLRAGV | 0.686 ± 0.0092 |
| GPCFPRRSAPSD | 0.67 ± 0.046 |
| DRSTIKIAIHRQ | 0.656 ± 0.056 |
| LTPFQGLHLPIP | 0.745 ± 0.037 |
| TKQSKRKHESRT | 0.671 ± 0.044 |
| CTVWGLWRGWTA | 0.7389 ± 0.0041 |
| FVCCSIRFGCGW | 0.604 ± 0.014 |
| IRRSVVRCLFTE | 0.707 ± 0.056 |
| MPFYPSLLTSLL | 0.678 ± 0.014 |
| RYGHSVLQSGIS | 0.73 ± 0.042 |
| LHRGCSGNVPAR | 0.697 ± 0.037 |
| WARFRKGEVRSG | 0.748 ± 0.072 |
| GTQSGGGGGKGG | 0.683 ± 0.044 |
| RRKLMLWTSKLE | 0.705 ± 0.05 |
| LARASLVLPPSG | 0.648 ± 0.093 |
| SPPGTCPTIRPS | 0.664 ± 0.014 |
| PLPSPPPSATSL | 0.602 ± 0.045 |
| WLVSPPTPFPLP | 0.6422 ± 0.0039 |
| PPPSRPSHPPPA | 0.628 ± 0.015 |
| LGVGGRWVGPGA | 0.722 ± 0.027 |
| PPPPPTPPHQPR | 0.79 ± 0.022 |
| CFLPACPSPGDS | 0.737 ± 0.075 |
| RARSFINSFSQS | 0.671 ± 0.018 |
| RPPYRRSPPRSP | 0.616 ± 0.019 |
| CWGGRSYVYNIG | 0.662 ± 0.016 |

| Sequence | protein stability index |
| --- | --- |
| FAARASLSPLTR | 0.855 ± 0.2 |
| VVVVRCGWGGCG | 0.592 ± 0.012 |
| PGSLSLSPLLPS | 0.758 ± 0.037 |
| LSTYVLRTGSFP | 0.677 ± 0.1 |
| SNTVSRAPFLLA | 0.681 ± 0.15 |
| AMPLPPPTPPRS | 0.627 ± 0.027 |
| IRPPPPPPPRAA | 0.59 ± 0.07 |
| WAVGGKVNEVIE | 0.757 ± 0.06 |
| QPKEGGRPKKKE | 0.675 ± 0.035 |
| LLIYALPQGTHL | 0.68 ± 0.048 |
| VSSELLFLVVRF | 0.543 ± 0.0089 |
| HLSLPTRAPIRH | 0.696 ± 0.019 |
| IQKIKYKRKYIK | 0.73 ± 0.027 |
| LLPPPPPASPAI | 0.696 ± 0.01 |
| RLTLKKMIKQNV | 0.56 ± 0.016 |
| ACRPRPPLSRSP | 0.739 ± 0.032 |
| VAPAHPPHHRNL | 0.6626 ± 0.0036 |
| GVAWGSGVGMMW | 0.718 ± 0.029 |
| KIQLTTMKNHGK | 0.685 ± 0.013 |
| REGALVYWGFLG | 0.652 ± 0.018 |
